Experimental data: article PMC4365404, “Understanding the effect of alternative splicing in the folding and function of the second PDZ from Protein Tyrosine Phosphatase-BL” (Scientific Reports, 2015)
Where a SMILES comes first, the peptide text is derived from it. Where no end group is shown, it is not given here. The star is where a group is joined. Dansyl = CN(C)c1cccc2c(S(=O)(=O)*)cccc12

B1: Dansylated peptide corresponding to the C-terminus of RIL (D-EQVSAV) (peptide)
peptide: Dansyl-EQVSAV
notes: Which natural protein the peptide comes from is in doubt; also called RIL peptide; source: bought: JPT Peptide Technologies (Berlin, Germany), HPLC-purified, purity higher than 95%
B2: Dansylated peptide corresponding to the C-terminus of APC (D-SYLVTSV) (peptide)
peptide: Dansyl-SYLVTSV
notes: C-terminus of the tumour suppressor protein APC; the last 7 residues; also called APC peptide; source: bought: JPT Peptide Technologies (Berlin, Germany), HPLC-purified, purity higher than 95%

Key:
[1] = target: T1, pWT43 PDZ2as (Mus musculus, UniProt Q64512, INS1372VLFDK/Y1385W); experiment: T-jump kinetic binding of dansylated peptides to pWT43 PDZ2as; settings: 50 mM sodium phosphate pH 7.2, 150 mM KCl; for Kd: 25°C, from T-jump kinetics, read-out: overall KD obtained from kinetic experiments; for kon / koff: T-jump 16 to 25°C, PDZ2as 2 μM, peptide 100 to 400 μM, fluorescence ex 296 nm, 20 traces averaged, pseudo-first order; for kon: read-out: association bimolecular rate constant kon; for koff: read-out: dissociation rate constant koff
T1 construct: The second PDZ domain of the protein tyrosine phosphatase BL (PDZ2); made in house
T1 sequence (Q64512 with tags, fused parts or gaps INS1372VLFDK/Y1385W): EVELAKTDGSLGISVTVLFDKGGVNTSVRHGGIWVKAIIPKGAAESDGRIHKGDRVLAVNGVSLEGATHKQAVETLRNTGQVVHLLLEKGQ
Procedure: Previous studies have highlighted that the alternative splicing affects remarkably the binding function of the PDZ moiety, by nearly abrogating binding. To address the binding mechanism of pWT43 PDZ2as and its physiological partners, we performed kinetic experiments at 25°C. We carried out kinetic binding experiments by subjecting to temperature jump kinetics a constant concentration of pWT43 PDZ2as (2 μM) in the presence of excess concentrations of dansylated peptides mimicking the PDZ binding motif of APC and RIL; the latter concentrations typically varying from 100 to 400 μM. In particular, individual solutions containing a constant concentration of PDZ2as 2 μM and different concentrations of APC and RIL peptide were prepared and, subsequently, each of these solutions was subjected to a rapid temperature-jump to explore sub-ms relaxation binding kinetics. Under all the explored conditions, the observed time course was satisfactorily fitted by a single-exponential function, without evidence for accumulation of detectable intermediates. Analysis of the pseudo-first order dependence of observed rate constants (Figure 6) yields an association bimolecular rate constant kon of (0.44 ± 0.1) 10^6 s^−1 M^−1 and (0.74 ± 0.1) 10^6 s^−1 M^−1 and a dissociation rate constant koff of 145 ± 10 s^−1 and 120 ± 15 s^−1, respectively for APC and RIL peptides. […] A comparison between the observed kinetics on the light of previously reported structural and kinetic data of pWT43 PDZ2 is briefly discussed below.
Figure 6 Binding properties of pWT43 PDZ2as and of pWT43 PDZ2. Pseudo first order kinetics of the binding between pWT43 PDZ2as (circles) and pWT43 PDZ2 (diamonds) carried out at pH 7.2, 25°C. Data refer to both the APC (open symbols) and RIL (filled symbols) peptide.
Dansylated peptides corresponding to the C-terminus of APC and RIL, sequences D-SYLVTSV and D-EQVSAV, respectively, were purchased from JPT Peptide Technologies (Berlin, Germany); peptides were purified using high-performance liquid chromatography-purified peptide with purity higher than 95%.
Binding experiments were performed mixing a constant concentration of PDZ2as 2 μM with increasing concentrations of the APC or RIL peptide ranging from 100 to 400 μM in 50 mM sodium phosphate pH 7.2, in the presence of 150 mM KCl. The experiments were carried out using a Hi-Tech PTJ-64 capacitor-discharge T-jump apparatus (Hi-Tech, Salisbury, U.K.). Temperature was rapidly changed from 16°C to 25°C with a jump of 9°C. 20 individual traces were averaged at given peptide concentration. The fluorescence change of N-acetyltryptophanamide (NATA) was used in control measurements. Protein concentration was typically […]. The excitation wavelength was 296 nm and the fluorescence emission was measured using a band pass 315 +/− 25 nm glass filter.

[2] = target: T2, pWT43 PDZ2as, the alternatively spliced form of the second PDZ domain of protein tyrosine phosphatase BL …; experiment: temperature-jump fluorescence relaxation kinetics; constant pWT43 PDZ2as 2 uM with dansylated peptide 100 to 400 uM (pseudo-first order); 50 mM sodium phosphate pH 7.2, 150 mM KCl; jump from 16 to 25 °C; KD from kinetics; settings: both partners purified
T2 chain: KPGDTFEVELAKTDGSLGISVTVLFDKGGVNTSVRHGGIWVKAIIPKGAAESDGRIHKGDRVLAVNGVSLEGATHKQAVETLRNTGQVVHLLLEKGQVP

| Molecule | Kd [1] | kon [1] | koff [1] | Kd [2] | fold decrease of kon against pWT43 PDZ2 [2] | koff [2] | kon [2] |
| --- | --- | --- | --- | --- | --- | --- | --- |
| CC(C)C[C@H](NC(=O)[C@H](Cc1ccc(O)cc1)NC(=O)[C@H](CO)NS(=O)(=O)c1cccc2c(N(C)C)cccc12)C(=O)N[C@H](C(=O)N[C@H](C(=O)N[C@@H](CO)C(=O)N[C@H](C(=O)O)C(C)C)[C@@H](C)O)C(C)C [APC] (Dansyl-SYLVTSV-OH) | 352 ± 20 µM | 440000 ± 100000 M⁻¹ s⁻¹ | 145 ± 10 s⁻¹ | – | – | – | – |
| CC(C)[C@H](NC(=O)[C@H](C)NC(=O)[C@H](CO)NC(=O)[C@@H](NC(=O)[C@H](CCC(N)=O)NC(=O)[C@H](CCC(=O)O)NS(=O)(=O)c1cccc2c(N(C)C)cccc12)C(C)C)C(=O)O [RIL] (Dansyl-EQVSAV-OH) | 162 ± 10 µM | 740000 ± 100000 M⁻¹ s⁻¹ | 120 ± 15 s⁻¹ | – | – | – | – |
| B1 | – | – | – | 162 ± 10 µM | ~10 fold | 120 ± 15 s⁻¹ | 740000 M⁻¹ s⁻¹ |
| B2 | – | – | – | 352 ± 20 µM | ~10 fold | 145 ± 10 s⁻¹ | 440000 M⁻¹ s⁻¹ |
